The target in this experiment is mouse hypoxia inducible factor-2 alpha (mouse, UniProt P97481 1-874). The experiment is described as follows: cell-based or functional assay.

Experimental findings from US20060110769A1 (Bayer, published 2006) are described below.

Chain of mouse hypoxia inducible factor-2 alpha (P97481 whole entry): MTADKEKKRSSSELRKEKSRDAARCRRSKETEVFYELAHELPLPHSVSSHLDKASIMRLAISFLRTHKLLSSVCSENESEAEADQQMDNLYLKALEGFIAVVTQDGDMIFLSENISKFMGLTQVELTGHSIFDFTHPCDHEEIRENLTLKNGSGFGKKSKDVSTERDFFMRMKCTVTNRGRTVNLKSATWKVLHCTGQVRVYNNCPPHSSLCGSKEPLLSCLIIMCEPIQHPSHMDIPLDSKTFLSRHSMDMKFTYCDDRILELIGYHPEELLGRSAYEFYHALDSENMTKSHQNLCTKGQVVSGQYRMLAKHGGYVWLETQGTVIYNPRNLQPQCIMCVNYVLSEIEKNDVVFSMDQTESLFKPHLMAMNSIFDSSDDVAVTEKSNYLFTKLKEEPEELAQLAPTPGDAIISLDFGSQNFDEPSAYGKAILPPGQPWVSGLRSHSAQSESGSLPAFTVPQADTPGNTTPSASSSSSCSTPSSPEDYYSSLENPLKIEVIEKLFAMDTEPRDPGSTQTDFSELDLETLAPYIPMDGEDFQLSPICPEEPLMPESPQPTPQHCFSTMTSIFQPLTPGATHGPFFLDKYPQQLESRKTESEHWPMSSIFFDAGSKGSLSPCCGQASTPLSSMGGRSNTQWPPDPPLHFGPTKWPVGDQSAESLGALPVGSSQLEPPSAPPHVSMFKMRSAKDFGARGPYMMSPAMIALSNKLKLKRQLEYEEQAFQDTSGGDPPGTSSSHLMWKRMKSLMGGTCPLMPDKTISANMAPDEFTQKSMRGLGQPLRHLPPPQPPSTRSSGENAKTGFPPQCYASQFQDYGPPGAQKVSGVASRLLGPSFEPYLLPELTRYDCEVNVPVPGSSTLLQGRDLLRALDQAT

B1: human prolyl 4-hydroxylase PH-2 (enzyme)
chain: MAAAAVTGQRPETAAAEEASRPQWAPPDHCQAQAAAGLGDGEDAPVRPLCKPRGICSRAYFLVLMVFVHLYLGNVLALLLFVHYSNGDESSDPGPQHRAQGPGPEPTLGPLTRLEGIKVGHERKVQLVTDRDHFIRTLSLKPLLFEIPGFLTDEECRLIIHLAQMKGLQRSQILPTEEYEEAMSTMQVSQLDLFRLLDQNRDGHLQLREVLAQTRLGNGWWMTPESIQEMYAAIKADPDADGVLSLQEFSNMDLRDFHKYMRSHKAESSELVRNSHHTWLYQGEGAHHIMRAIRQRVLRLTRLSPEIVELSEPLQVVRYGEGGHYHAHVDSGPVYPETICSHTKLVANESVPFETSCRYMTVLFYLNNVTGGGETVFPVADNRTYDEMSLIQDDVDLRDTRRHCDKGNLRVKPQQGTAVFWYNYLPDGQGWVGDVDDYSLHGGCLVTRGTKWIANNWINVDPSRARQALFQQEMARLAREGGTDSQPEWALDRAYRDARVEL
With B1, the “activity of HIF-2 alpha on the hypoxia responsive reporter gene construct (equal amounts of each plasmid); activity of PH-2 relative to EGLN3” value is 2 fold less active than EGLN3.
